Data on 37 variants can be found in the supplement of paper PMC10201428.

B1: library; a variant is named by its letters at N, in order (parent)
chain: ACATTTGTTGATACAACCATAAAATGATAATTACACCCATAAATTGATAATTATCACACCCANNNNNNNNNNNNNNCTCTGATCATAGTCAGACCAACATTGCTACGACCCGTATTCGCACCGACAC

± gives the standard deviation of the averaged measurements.

The variants in data set [1] derive from B1. The data set is described as follows: relative integration efficiency (T-RL orientation) vs wild-type transposon end (log2 (normalized fold change)); transposon end mutated: right end (5 bp flank + 75 bp right end); higher = more efficient transposition. The following applies: with VchCAST RNA-guided transposition machinery (E. coli BL21(DE3) host, lacZ target). On the procedure: (§1)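 Pooled, barcoded VchCAST (Tn6677) mini-transposon donor libraries; each variable transposon-end sequence sits in a fixed pDonor mini-transposon context (10-bp barcode and cargo not included). Left- or right-end libraries were co-transformed with pEffector (TniQ-Cascade, TnsABC, lacZ crRNA, T7, 0.1 mM IPTG) into E. coli BL21(DE3) and grown 18 h at 37 C. T-LR and T-RL junction amplicons were sequenced; output/input barcode fold change was normalised to the mean of four wild-type barcodes and log2-transformed. Two biological replicates; zero-count/undetected variants carry floor values (-10 / -15), censored here. Barcode uncoupling by PCR recombination adds noise.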

The variants in data set [2] derive from B1. The data set is described as follows: relative integration efficiency (T-LR orientation) vs wild-type transposon end (log2 (normalized fold change)); transposon end mutated: right end (5 bp flank + 75 bp right end); higher = more efficient transposition. As to conditions: with VchCAST RNA-guided transposition machinery (E. coli BL21(DE3) host, lacZ target). On the procedure:
as §1

Regarding TCCCGTGATATTGC, the “relative integration efficiency (log2)” value was -0.648 ± 0.091 in data set [1] and 2.35 ± 0.13 in data set [2].
The corresponding values for ATTTAACTATAACG A15T are -1.1 ± 0.15 and 1.8 ± 0.077.
The corresponding values for ATTTAACTATAACG A15C are -0.749 ± 0.29 and 2.73 ± 0.074.
The corresponding values for ATTTAACTATAACG T40G are -2.18 ± 0.11 and 0.496 ± 0.47.
For ATTTAACTATAACG T40A, the “relative integration efficiency (log2)” value in data set [1] was -1.01 ± 0.19; in data set [2], 1.82 ± 0.13.
In the same order, the values of ATTTAACTATAACG T40C are -1.72 ± 0.32 and 1.196 ± 0.0054.
For ATTTAACTATAACG A56C, the “relative integration efficiency (log2)” value in data set [1] is -1.09 ± 0.21; in data set [2], 2.32 ± 0.19.
In the case of ATTTAACTATAACG A56T, the “relative integration efficiency (log2)” value is -0.909 ± 0.39 in data set [1] and 2.57 ± 0.2 in data set [2].
ATTTAACTATAACG C14G: the “relative integration efficiency (log2)” value is -0.937 ± 0.17 in data set [1] and 1.76 ± 0.15 in data set [2].
In the same order, the values of ATTTAACTATAACG A41T are -0.673 ± 0.15 and 2.347 ± 0.0099.
The corresponding values for ATTTAACTATAACG A41C are -1.53 ± 0.21 and 1.39 ± 0.29.
In the same order, the values of ATTTAACTATAACG A62C are -1.03 ± 0.27 and 2.22 ± 0.21.
Consider ATTTAACTATAACG T45A, for which the “relative integration efficiency (log2)” value in data set [1] was -1.14 ± 0.22; in data set [2] it was 1.93 ± 0.065.
In the same order, the values of ATTTAACTATAACG T45G are -1.16 ± 0.28 and 1.56 ± 0.031.
In the same order, the values of ATTTAACTATAACG T25G are -1.44 ± 0.3 and 1.851 ± 0.01.
The corresponding values for ATTTAACTATAACG T25A are -1.13 ± 0.11 and 2.26 ± 0.046.
In the case of ATTTAACTATAACG T25C, the “relative integration efficiency (log2)” value in data set [1] is -1.07 ± 0.25; in data set [2], 2.2 ± 0.17.
With ATTTAACTATAACG A30C, the “relative integration efficiency (log2)” value was -1.2 ± 0.42 in data set [1] and 2.682 ± 0.016 in data set [2].
In the case of ATTTAACTATAACG A30G, the “relative integration efficiency (log2)” value was -1.51 ± 0.13 in data set [1] and 2.11 ± 0.26 in data set [2].
In the same order, the values of ATTTAACTATAACG A30T are 0.406 ± 0.54 and 4.401 ± 0.043.
For TTTTATGATATTGC, the “relative integration efficiency (log2)” value in data set [1] was -0.0751 ± 0.044; in data set [2], 0.744 ± 0.14.
Turning to ATTTAACTATAACG A29T, the “relative integration efficiency (log2)” value in data set [1] is -1.09 ± 0.32; in data set [2], 2.6 ± 0.24.
The corresponding values for ATTTAACTATAACG A29C are -1.83 ± 0.43 and 1.8 ± 0.15.
In the same order, the values of ATTTAACTATAACG T51C are -1.04 ± 0.24 and 2.48 ± 0.17.
In the same order, the values of ATTTAACTATAACG T51A are -1.46 ± 0.28 and 2.29 ± 0.1.
As to ATTTAACTATAACG T51G, the “relative integration efficiency (log2)” value in data set [1] is -1.67 ± 0.15; in data set [2], 2.1 ± 0.14.
For the variant TATATTGATATTGC, the “relative integration efficiency (log2)” value in data set [1] is 0.155 ± 0.039; in data set [2], 0.337 ± 0.47.
On to TCAATTGATATTGC, for which the “relative integration efficiency (log2)” value is 0.124 ± 0.1 in data set [1] and 2.16 ± 0.12 in data set [2].
Consider ATTTAACTATAACG T44C, for which the “relative integration efficiency (log2)” value in data set [1] was -0.948 ± 0.24; in data set [2], 2.28 ± 0.14.
The corresponding values for ATTTAACTATAACG T44A are -0.682 ± 0.22 and 2.32 ± 0.13.
As for ATTTAACTATAACG T44G, the “relative integration efficiency (log2)” value in data set [1] was -0.646 ± 0.027; in data set [2], 2.17 ± 0.033.
With ATTTAACTATAACG G10C, the “relative integration efficiency (log2)” value in data set [1] is -1.15 ± 0.31; in data set [2] it was 0.7 ± 0.19.
ATTTAACTATAACG G10A: the “relative integration efficiency (log2)” value in data set [1] is -0.62 ± 0.18; in data set [2], 1.89 ± 0.087.
With ATTTAACTATAACG G10T, the “relative integration efficiency (log2)” value in data set [1] was -1.54 ± 0.43; in data set [2] it was 0.15 ± 0.026.
In the case of ATTTAACTATAACG A19G, the “relative integration efficiency (log2)” value in data set [1] is -0.904 ± 0.018; in data set [2] it was 2.08 ± 0.037.
On to ATTTAACTATAACG A19C, for which the “relative integration efficiency (log2)” value in data set [1] is -1.84 ± 0.3; in data set [2] it was 1.06 ± 0.42.
In the same order, the values of ATTTAACTATAACG A19T are -1.53 ± 0.24 and 2.1 ± 0.09.
